Patent US20260217793A1 (Chugai, published 2026)
Residue numbers refer to the chain shown, from its start.

T1: human FcγRIIa type R (Arg131) extracellular domain with C-terminal His tag (human, UniProt P12318 34-217)
T1 sequence (looked up): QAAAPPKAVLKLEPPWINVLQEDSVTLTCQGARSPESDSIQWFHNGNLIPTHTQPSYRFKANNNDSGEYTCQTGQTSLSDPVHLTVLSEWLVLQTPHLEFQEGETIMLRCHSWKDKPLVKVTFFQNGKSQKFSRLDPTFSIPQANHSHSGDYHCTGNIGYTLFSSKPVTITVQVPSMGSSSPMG

T2: human FcγRIIb extracellular domain with C-terminal His tag (human, UniProt P31994 43-217)
T2 sequence (looked up): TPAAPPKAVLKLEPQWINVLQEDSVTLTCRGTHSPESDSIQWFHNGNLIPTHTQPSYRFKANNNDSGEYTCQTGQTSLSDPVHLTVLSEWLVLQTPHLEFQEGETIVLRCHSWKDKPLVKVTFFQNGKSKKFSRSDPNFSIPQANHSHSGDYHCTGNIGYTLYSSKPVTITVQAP

T3: FcγRIIb extracellular domain with C-terminal His tag (human, UniProt P31994 43-217)
T3 sequence (looked up): T2 sequence (looked up)

T4: FcγRIIa type R extracellular domain with C-terminal His tag (human, UniProt P12318 34-217)
T4 sequence (looked up): T1 sequence (looked up)

B1: IL6R-BP538/IL6R-L (antibody, human IgG1, kappa)
heavy: QVQLQESGPGLVKPSETLSLTCAVSGHSISHDHAWSWVRQPPGEGLEWIGFISYSGITNYNPSLQGRVTISRDNSKNTLYLQMNSLRAEDTAVYYCARSLARTTAMDYWGEGTLVTVSSASTKGPSVFPLAPSSKSTSGGTAALGCLVKDYFPEPVTVSWNSGALTSGVHTFPAVLQSSGLYSLSSVVTVPSSSLGTQTYICNVNHKPSNTKVDKKVEPKSCDKTHTCPPCPAPELLGDDSVFLFPPKPKDTLMISRTPEVTCVVIDVSEEDGEVKFNWYVDGVEVHNAKTKPREEQYNSTYRVVSVLTVLHQDWLNGKEYKCKVSNKALPRPIEKTISKAKGQPREPQVYTLPPSRDELTKNQVSLTCLVKGFYPSDIAVEWESNGQPENNYKTTPPVLDSDGSFFLYSKLTVDKSRWQQGNVFSCSVMHEALHNHYTQESLSLSP
light: not shown
B2: IL6R-BP563/IL6R-L (antibody, human IgG1, kappa)
heavy: B1 heavy with E235D, I266V, E274D, Y298D
light: not shown
B3: IL6R-BP540/IL6R-L (antibody, human IgG1, kappa)
heavy: B1 heavy with E274P, Y298D
light: not shown
B4: IL6R-BP565/IL6R-L (antibody, human IgG1, kappa)
heavy: B1 heavy with E235D, I266V, S269A, Y298D
light: not shown
B5: IL6R-BP551/IL6R-L (antibody, human IgG1, kappa)
heavy: B1 heavy with E274D, Y298D
light: not shown
B6: IL6R-BP536/IL6R-L (antibody, human IgG1, kappa)
heavy: B1 heavy with E235D, Y298D, A329G, P398M
light: not shown
B7: IL6R-BP508/IL6R-L (antibody, human IgG1, kappa)
heavy: B1 heavy with E235D, S269A, E274P, Y298D, R332A
light: not shown
B8: IL6R-BP504/IL6R-L (antibody, human IgG1, kappa)
heavy: B1 heavy with E235D, S269A, E274P, R332A
light: not shown
B9: IL6R-BP503/IL6R-L (antibody, human IgG1, kappa)
heavy: B1 heavy with E235D, S269A, Y298D, A329G, P398M
light: not shown
B10: IL6R-BP505/IL6R-L (antibody, human IgG1, kappa)
heavy: B1 heavy with E235D, S269A, E274D, R332A
light: not shown
B11: IL6R-BP509/IL6R-L (antibody, human IgG1, kappa)
heavy: B1 heavy with E235D, S269A, E274D, Y298D, R332A
light: not shown
B12: IL6R-BP511/IL6R-L (antibody, human IgG1, kappa)
heavy: B1 heavy with S269A, E274P, Y298D
light: not shown
B13: IL6R-BP502/IL6R-L (antibody, human IgG1, kappa)
heavy: B1 heavy with E235D, S269A, Y298D, A329G
light: not shown
B14: IL6R-BP262/IL6R-L (antibody, human IgG1, kappa)
heavy: B1 heavy with I266V, R332A
light: not shown
B15: IL6R-BP496/IL6R-L (antibody, human IgG1, kappa)
heavy: B1 heavy with E235D, S269A, Y298D, R332A
light: not shown
B16: IL6R-BP487/IL6R-L (antibody, human IgG1, kappa)
heavy: B1 heavy with E235D, S269A, P398M
light: not shown
B17: IL6R-BP494/IL6R-L (antibody, human IgG1, kappa)
heavy: B1 heavy with I266V, S269A, Y298D
light: not shown
B18: IL6R-BP479/IL6R-L (antibody, human IgG1, kappa)
heavy: B1 heavy with E235D, V268L, S269A, R332A
light: not shown
B19: IL6R-BP498/IL6R-L (antibody, human IgG1, kappa)
heavy: B1 heavy with E235D, S269A, P398L
light: not shown
B20: IL6R-BP497/IL6R-L (antibody, human IgG1, kappa)
heavy: B1 heavy with E235D, S269A, A329G
light: not shown
B21: IL6R-BP489/IL6R-L (antibody, human IgG1, kappa)
heavy: B1 heavy with E235D, S269A, Y298D, P398M
light: not shown
B22: IL6R-BP269/IL6R-L (antibody, human IgG1, kappa)
heavy: B1 heavy with I266V, Y298D, R332A
light: not shown
B23: IL6R-BP491/IL6R-L (antibody, human IgG1, kappa)
heavy: B1 heavy with S269A, Y298D
light: not shown
B24: IL6R-BP483/IL6R-L (antibody, human IgG1, kappa)
heavy: B1 heavy with E235D, I266V, V268L, S269A, R332A
light: not shown
B25: IL6R-BP488/IL6R-L (antibody, human IgG1, kappa)
heavy: B1 heavy with E235D, S269A, Y298D
light: not shown
B26: IL6R-BP492/IL6R-L (antibody, human IgG1, kappa)
heavy: B1 heavy with D239G, S269A, R332A
light: not shown

These binders were tested against human FcγRIIIa type V (Val158) extracellular domain with C-terminal His tag (human, UniProt P08637 17-208) (assay: SPR).
human FcγRIIIa type V (Val158) extracellular domain with C-terminal His tag, sequence (P08637 17-208 F176V): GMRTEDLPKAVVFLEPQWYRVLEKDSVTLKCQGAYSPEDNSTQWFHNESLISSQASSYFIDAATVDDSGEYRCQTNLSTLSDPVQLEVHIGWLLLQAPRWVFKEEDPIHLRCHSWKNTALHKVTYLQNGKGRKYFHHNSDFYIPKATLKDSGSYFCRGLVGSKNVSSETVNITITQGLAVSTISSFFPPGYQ

Kd | Binder
33 µM | B1
38 µM | B2
39 µM | B3
21 µM | B4
48 µM | B5
23 µM | B6

These binders were tested against T1, human FcγRIIa type R (Arg131) … (assay: SPR).

KD (IIaR) of parent polypeptide/KD (IIaR) of altered polypeptide | Binder
2 | B7
2.4 | B8
19.4 | B9
5.4 | B1
2.6 | B10
2.4 | B2
5.2 | B3
2.1 | B11
4.8 | B4
6.3 | B12
4.5 | B5
10.1 | B13
13.9 | B6

These binders were tested against T2, human FcγRIIb extracellular domain with … (assay: SPR).

KD (IIb) of parent polypeptide/KD (IIb) of altered polypeptide | Binder
149 | B7
128 | B8
1810 | B9
587 | B1
145 | B10
196 | B2
541 | B3
174 | B11
565 | B4
891 | B12
482 | B5
840 | B13
1040 | B6

Each binder was assayed against T3, FcγRIIb extracellular domain with … (assay: ratio of SPR KDs, FcγRIIaH over FcγRIIb, same variant).

KD (IIaH)/KD (IIb) | Binder
375 | B14
201 | B15
730 | B16
821 | B17
268 | B18
564 | B19
236 | B20
870 | B21
637 | B22
724 | B23

The binders below were run against T3, FcγRIIb extracellular domain with … (assay: ratio of SPR KDs, FcγRIIaR over FcγRIIb, same variant).

KD (IIaR)/KD (IIb) | Binder
17 | B14
25.5 | B15
16.1 | B18
30.8 | B19
21 | B20
16.8 | B24
40.1 | B25
19.6 | B22
38.8 | B23

Each binder was assayed against T4, FcγRIIa type R extracellular domain … (assay: ratio of SPR KDs vs IL6R-B3/IL6R-L).

KD (IIaR) of parent polypeptide/KD (IIaR) of altered polypeptide | Binder
0.5 | B14
2.3 | B15
28.3 | B16
4.3 | B17
1.2 | B18
21.7 | B19
0.8 | B24
14.8 | B25
1.2 | B26
25.7 | B21
0.5 | B22
9.3 | B23

Each binder was assayed against T3, FcγRIIb extracellular domain with … (assay: ratio of SPR KDs vs IL6R-B3/IL6R-L).

KD (IIb) of parent polypeptide/KD (IIb) of altered polypeptide | Binder
25.8 | B14
2700 | B16
471 | B17
55.5 | B18
764 | B20
39.7 | B24
1680 | B25
131 | B26
3100 | B21
27.4 | B22
